Data from paper PMC12065904, “Mapping the interaction surface between CaVβ and actin and its role in calcium channel clearance” (Nature Communications, 2025).

Target: rabbit skeletal muscle actin, polymerized in vitro (F-actin) (rabbit, UniProt P68135 1-377)
Assay: co-sedimentation; F-actin cosedimentation: CaVβ proteins incubated with polymerized actin in polymerization buffer (0.2 mM CaCl2, 50 mM KCl, 2 mM MgCl2, 1 mM ATP, 5 mM HEPES pH 8.0), 25 µM phalloidin; 150,000 × g, 20 min, 4 °C; densitometry of pellet over total; also at 30–150 mM NaCl and after 30 or 90 min of incubation
Settings: both partners purified

bound fraction: 0.24 ± 0.03 fraction
B1: CaVβ2-core WT (core region of rat CaVβ2, residues 23–422) (domain or fragment)
chain: not shown
notes: rat CaVβ2 (voltage-gated calcium channel β2 subunit), UniProtKB Q8VGC3-2, core region (SH3 and GK domains), residues 23–422; Expressed from pRSETB
